To fix the notation:
T1: Human Angiopoietin-2 full-length (hAng2) (human, UniProt O15123 19-496)
T1 construct: The cell assays used full-length hAng2 from R&D Systems; also called human Ang2; A2
T1 sequence: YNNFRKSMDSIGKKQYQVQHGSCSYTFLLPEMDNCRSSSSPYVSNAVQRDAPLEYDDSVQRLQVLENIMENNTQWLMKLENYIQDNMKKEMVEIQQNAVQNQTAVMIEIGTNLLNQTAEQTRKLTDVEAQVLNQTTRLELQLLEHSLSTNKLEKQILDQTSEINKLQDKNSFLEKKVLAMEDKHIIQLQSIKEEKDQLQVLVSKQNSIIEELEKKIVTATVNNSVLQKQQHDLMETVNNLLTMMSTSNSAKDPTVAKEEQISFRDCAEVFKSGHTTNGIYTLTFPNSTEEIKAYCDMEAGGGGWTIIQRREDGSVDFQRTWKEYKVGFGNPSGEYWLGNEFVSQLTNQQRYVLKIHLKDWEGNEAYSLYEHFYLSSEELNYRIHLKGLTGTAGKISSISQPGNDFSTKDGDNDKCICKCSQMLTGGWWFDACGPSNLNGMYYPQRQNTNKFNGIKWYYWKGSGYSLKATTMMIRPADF

B1: humanized anti-Ang2 antibody 2C8H32 (antibody, V domains shown)
VH: QVQLVQSGAEVKKPGASVKVSCKASGYSFTSYWMHWVRQAPGQGLEWIGMIDPSDSETRLNQKFKDKASMTRDTSTSTVYMELSSLRSEDTAVYYCARRFYYGSDWYFDVWGQGTLVTVSS
VL: DIQLTQSPSFLSASVGDRVSITCKASQDVGTAVAWYQQKPGKAPKLLIYWASTRHTGVPDRFSGSGSGTEFTLTISSLQPEDFATYYCQQYSSYPLTFGQGTKVEIK
notes: Full-length human IgG1
B2: humanized anti-Ang2 antibody 2C8H41 (antibody, V domains shown)
VH: B1 VH with R38K
VL: B1 VL with S20T, D60S
notes: Full-length human IgG1
B3: humanized anti-Ang2 antibody 2C8H33 (antibody, V domains shown)
VH: B1 VH
VL: B1 VL with T85D, Y87F
notes: Full-length human IgG1
B4: humanized anti-Ang2 antibody 2C8H13 (antibody, V domains shown)
VH: B1 VH with S28T, I48M, K67R, A68V, S69T
VL: B1 VL with T85D, Y87F
notes: Full-length human IgG1
B5: humanized anti-Ang2 antibody 2C8H31 (antibody, V domains shown)
VH: B1 VH
VL: B1 VL with S20T, D60S
notes: Full-length human IgG1
B6: humanized anti-Ang2 antibody 2C8H12 (antibody, V domains shown)
VH: B1 VH with S28T, I48M, K67R, A68V, S69T
VL: B1 VL
notes: Full-length human IgG1
B7: humanized anti-Ang2 antibody 2C8H21 (antibody, V domains shown)
VH: B1 VH with K67R, A68V, S69T
VL: B1 VL with S20T, D60S
notes: Full-length human IgG1
B8: humanized anti-Ang2 antibody 2C8H51 (antibody, V domains shown)
VH: B1 VH with R38K, M70L, R72V
VL: B1 VL with S20T, D60S
notes: Full-length human IgG1
B9: humanized anti-Ang2 antibody 2C8H42 (antibody, V domains shown)
VH: B1 VH with R38K
VL: B1 VL
notes: Full-length human IgG1
B10: humanized anti-Ang2 antibody 2C8H22 (antibody, V domains shown)
VH: B1 VH with K67R, A68V, S69T
VL: B1 VL
notes: Full-length human IgG1
B11: 2C8H11G4 (human IgG4 class antibody of 2C8H11) (antibody, V domains shown)
VH: B1 VH with S28T, I48M, K67R, A68V, S69T
VL: B1 VL with S20T, D60S
notes: The heavy chain constant region (CH1-hinge-CH2-CH3) was replaced by an IgG4 class constant region; also called 2C8H11-IgG4
B12: humanized anti-Ang2 antibody 2C8H23 (antibody, V domains shown)
VH: B1 VH with K67R, A68V, S69T
VL: B1 VL with T85D, Y87F
notes: Full-length human IgG1
B13: humanized anti-Ang2 antibody 2C8H43 (antibody, V domains shown)
VH: B1 VH with R38K
VL: B1 VL with T85D, Y87F
notes: Full-length human IgG1

Positions count from the first letter of the chain named.

The target in this experiment is T1, Human Angiopoietin-2 full-length (hAng2). Put plainly: BLI (Octet), antibody fixed on AR2G sensor, hAng2 3.125-50 nM in solution, 1:1 global fit. How it is done:
The affinity of humanized anti-Ang2 antibody against hAng2 was measured using Octet system (ForteBio). Specifically, buffer and samples were measured in total 200 μl/well using Black 96-well plates (96 well F-type black plates, Greiner). […] After the hydration, humanized anti-Ang2 antibody was diluted in 10 mM sodium acetate, pH 6.0 buffer at a concentration of 10 μg/ml, fixed on AR2G biosensor, and blocked with 1M ethanolamine. The recombinant hAng2 was diluted to 50, 25, 12.5, 6.25, 3.125, and 0 nM with 1× kinetic buffer, and subjected to association for 300 sec and dissociation for 900 sec.
The affinities of humanized 2C8 antibodies to hAng2 were in Table 15.
B1 came in with a dissociation constant Kd of 0.197 nM, a dissociation rate constant (koff) of 1.49e-05 s⁻¹ and an on-rate (kon) of 75700 M⁻¹ s⁻¹.

Consider B2, for which the Kd amounted to 0.249 nM, the koff turned out to be 1.67e-05 s⁻¹ and the kon came out at 67000 M⁻¹ s⁻¹.

As to B3, binding was put at a Kd of 0.0445 nM, the off-rate constant (koff) is 3.99e-06 s⁻¹ and the kon was 89600 M⁻¹ s⁻¹.

B4 had a Kd of 0.246 nM, an off-rate (koff) of 2.77e-05 s⁻¹ and a kon of 113000 M⁻¹ s⁻¹.

The molecule B5 yielded a Kd of 0.266 nM, a koff of 2.21e-05 s⁻¹ and a kon of 83200 M⁻¹ s⁻¹.

The molecule B6 yielded a dissociation constant Kd of 0.139 nM, a dissociation rate constant (koff) of 1.33e-05 s⁻¹ and an on-rate (kon) of 95200 M⁻¹ s⁻¹.

B7 displayed a Kd of 0.135 nM, a koff of 1.5e-05 s⁻¹ and an association rate constant (kon) of 111000 M⁻¹ s⁻¹.

In turn, B8 had a Kd of 0.137 nM, a dissociation rate constant (koff) of 9.61e-06 s⁻¹ and an on-rate constant (kon) of 70200 M⁻¹ s⁻¹.

B9: binding was put at a Kd of 0.381 nM, the off-rate constant (koff) worked out at 3.07e-05 s⁻¹ and the kon came to 80600 M⁻¹ s⁻¹.

Turning to B10, the Kd was determined as 0.115 nM, the koff stood at 6.84e-06 s⁻¹ and the kon was 59600 M⁻¹ s⁻¹.

B11 registered an equilibrium dissociation constant (Kd) of 0.0105 nM, a koff of 4.35e-06 s⁻¹ and an on-rate (kon) of 415000 M⁻¹ s⁻¹.

Take B12: the affinity, expressed as Kd, was 0.287 nM; the dissociation rate constant (koff) worked out at 2.28e-05 s⁻¹; the on-rate constant (kon) was 79500 M⁻¹ s⁻¹.

B13 came in with a dissociation constant (Kd) of 0.373 nM, an off-rate constant (koff) of 2.65e-05 s⁻¹ and an on-rate (kon) of 71100 M⁻¹ s⁻¹.

The values are drawn from patent publication US20210079083A1 (INSTITUTE FOR BASIC SCIENCE, published 2021).
